Holding throughout (assay): cell-based or functional assay
Test [1] has as its target HIV-1 Env of isolate 92UG001 (clade D) (HIV-1).
The target in test [2] is HIV-1 MGRM-D-018 envelope glycoprotein (Env) on pseudovirus (HIV-1).
Test [3] has as its target HIV-1 MGRM-F1-012 Env (pseudovirus) (HIV-1).
Test [4] deals with HIV-1 Env of isolate MGRM-D-005 (clade D) (HIV-1).
Test [5] concerns the target HIV-1 Env of isolate MGRM-D-016 (HIV-1).
The target in test [6] is HIV-1 Env of isolate MGRM-G-015 (subtype G) (HIV-1).
For test [7], the target named is HIV-1 MGRM-A-013 envelope glycoprotein (Env) (HIV-1).
The target in test [8] is HIV-1 94KE105 envelope glycoprotein (Env) (HIV-1).
In test [9] the target is HIV-1 MGRM-A-007 envelope glycoprotein (Env) (HIV-1).
Test [10] has as its target HIV-1 Env of pseudovirus NL43, clade B (HIV-1).
The target of test [11] is HIV-1 Env of pseudovirus MGRM-Chronic-B-002, clade B (HIV-1).
Test [12] deals with HIV-1 Env of isolate MGRM-G-024 (clade G pseudovirus) (HIV-1).
The target in test [13] is HIV-1 Env of isolate MG RM-D-029 (subtype D) (HIV-1).
The target of test [14] is HIV-1 Env of isolate MG RM-D-011 (subtype D) (HIV-1).
Test [15] addresses HIV-1 Env of isolate MGRM-F1-006 (subtype F) (HIV-1).
Test [16] addresses HIV-1 MGRM-Chronic-B-011 Env (pseudovirus) (HIV-1).
Test [17] has as its target HIV-1 Env of isolate MGRM-C-004 (pseudovirus) (HIV-1 isolate MGRM-C-004, subtype C).
Test [18] deals with HIV-1 Env of isolate MG RM-D-028 (subtype D) (HIV-1).
The target in test [19] is aMLV envelope on pseudovirus (negative control virus).
Test [20] deals with HIV-1 Env of isolate MGRM-G-024 (HIV-1).
Test [21] addresses HIV-1 JR-CSF Env V182A (HIV-1 (isolate JR-CSF)) (UniProt P20871).
Test [22] addresses HIV-1 JR-CSF Env V120A (HIV-1 (isolate JR-CSF)) (UniProt P20871).
The target of test [23] is HIV-1 JR-CSF Env L125A (HIV-1 (isolate JR-CSF)) (UniProt P20871).
The target in test [24] is HIV-1 JR-CSF Env L179A (HIV-1 (isolate JR-CSF)) (UniProt P20871).
Test [25] has as its target HIV-1 Env of isolate JRCSF (HIV-1) (UniProt P20871).
Test [26] addresses HIV-1 Env of isolate TRJ04551.58 (HIV-1).

Sequence of PGT-143 (4980_N08) (antibody) (VH): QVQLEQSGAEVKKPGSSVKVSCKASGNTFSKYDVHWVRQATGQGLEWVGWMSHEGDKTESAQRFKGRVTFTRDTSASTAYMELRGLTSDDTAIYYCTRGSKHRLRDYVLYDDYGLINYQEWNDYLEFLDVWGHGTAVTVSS
Sequence of PGT-143 (4980_N08) (antibody) (VL): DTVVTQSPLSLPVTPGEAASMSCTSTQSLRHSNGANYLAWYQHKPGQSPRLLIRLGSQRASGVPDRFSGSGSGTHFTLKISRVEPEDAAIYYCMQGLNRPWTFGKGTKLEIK
Sequence of PGT-141 (4964_G22; 4993_K13) (antibody) (VH): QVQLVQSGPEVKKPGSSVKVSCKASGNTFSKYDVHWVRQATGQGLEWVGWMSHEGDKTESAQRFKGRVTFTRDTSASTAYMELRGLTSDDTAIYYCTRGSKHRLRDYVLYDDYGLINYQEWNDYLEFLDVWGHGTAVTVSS
Sequence of PGT-141 (4964_G22; 4993_K13) (antibody) (VL): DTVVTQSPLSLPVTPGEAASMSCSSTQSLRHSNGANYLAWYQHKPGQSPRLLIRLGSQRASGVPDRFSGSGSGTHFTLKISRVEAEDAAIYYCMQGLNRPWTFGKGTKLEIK
Sequence of PGT-142 (4995_E20) (antibody) (VH): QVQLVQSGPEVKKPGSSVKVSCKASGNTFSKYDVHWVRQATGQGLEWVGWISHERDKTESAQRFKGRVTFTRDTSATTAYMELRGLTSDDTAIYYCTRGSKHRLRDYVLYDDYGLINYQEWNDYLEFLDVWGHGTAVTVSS
Sequence of PGT-144 (4970_K22) (antibody) (VH): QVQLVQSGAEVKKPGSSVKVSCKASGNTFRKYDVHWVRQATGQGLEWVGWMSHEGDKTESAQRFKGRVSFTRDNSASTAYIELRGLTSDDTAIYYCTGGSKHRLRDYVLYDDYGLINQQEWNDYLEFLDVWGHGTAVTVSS
Sequence of PGT-144 (4970_K22) (antibody) (VL): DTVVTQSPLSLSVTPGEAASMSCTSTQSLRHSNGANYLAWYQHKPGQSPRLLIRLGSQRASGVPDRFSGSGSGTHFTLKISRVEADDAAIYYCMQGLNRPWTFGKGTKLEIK

For 1496_C09 (PG9) (TCN-109) (antibody), the IC50 (µg/ml), pseudovirus neutralization worked out at 41.8 µg/mL in test [1]; 0.01 µg/mL in test [3]; 0.59 µg/mL in test [4]; 0.16 µg/mL in test [7]; 29.6 µg/mL in [8]; 0.37 µg/mL in test [9]. Further, the results for the IC50 (µg/ml), pseudovirus neutralization in test [10], in [11] and in [12] were 0.32 µg/mL, 1.41 µg/mL and 0.07 µg/mL, respectively. Besides, the IC50 (ug/ml), neutralizing activity in [2] was 2.04 µg/mL. The same substance registered an IC50 neutralization in test [2] of 0.0444 µg/mL. Further, the IC80, neutralization in test [2] is 0.18 µg/mL. Moreover, the IC90, neutralization in test [2] worked out at 0.43 µg/mL. This substance also yielded an IC95, neutralization in test [2] of 1.05 µg/mL. For the same substance, the IC50 (µg/mL), pseudovirus neutralization in [5] turned out to be 0.098 µg/mL. This substance also yielded a neutralization IC50 in test [6] of 6.6 µg/mL.

For 4838_L06 (PGT-121) (antibody), the IC50 (µg/mL), pseudovirus neutralization in [13] was above 50 µg/mL; in [14] it was 0.018 µg/mL; in test [15], 5.33 µg/mL; in test [18] it was 0.009 µg/mL. Moreover, in test [16], the IC50, pseudovirus neutralization was above 50 µg/mL. The substance further came in with an IC50 (µg/mL) neutralization in test [17] of 0.011 µg/mL. In [19], the IC50 (ug/ml), neutralizing activity was above 10 µg/mL.

With 4858_P08 (PGT-123) (antibody), the IC50 (ug/ml), neutralizing activity in test [2] was 0.0047 µg/mL; in test [19] it was above 10 µg/mL. The IC50, pseudovirus neutralization in test [2] is 0.0047 µg/mL; in [20], 0.032 µg/mL; in [16], above 50 µg/mL. Moreover, the IC80, pseudovirus neutralization in test [2] is 0.0175 µg/mL. Besides, the IC90 (pseudovirus neutralization) in [2] turned out to be 0.0381 µg/mL. The IC95, pseudovirus neutralization in [2] worked out at 0.0791 µg/mL. For the same substance, the IC50 (µg/mL), pseudovirus neutralization in test [13] was above 50 µg/mL; in test [14], 0.012 µg/mL; in test [15], 6.89 µg/mL; in [18], 0.132 µg/mL. Further, the Fold IC50 increase relative to wild-type in test [21] came out at 2.8 fold; in test [22], 1.1 fold; in test [23] it was 2.5 fold; in [24] it was 1.2 fold. In test [17], this substance registered an IC50 (µg/mL) neutralization of 0.009 µg/mL.

Consider 4877_D15 (PGT-122) (antibody), for which the IC50 (ug/ml), neutralizing activity in [2] is 0.0115 µg/mL; in test [19], above 10 µg/mL. For the same substance, the IC50 (µg/mL), pseudovirus neutralization is above 50 µg/mL in test [13], 0.019 µg/mL in [14], 3.27 µg/mL in [15] and 3.34 µg/mL in test [18]. For the same substance, the results for the IC50, pseudovirus neutralization in test [20] and in test [16] were 0.033 µg/mL and above 50 µg/mL, respectively. The IC50 (µg/mL) neutralization in [17] amounted to 0.02 µg/mL.

For the substance 5145_B14 (PGT-127) (antibody), the IC50 (µg/mL), pseudovirus neutralization is above 50 µg/mL in test [13], 0.015 µg/mL in [14], 7.17 µg/mL in test [15] and above 50 µg/mL in test [18]. Also, the IC50, pseudovirus neutralization was above 50 µg/mL in [20] and 0.297 µg/mL in [16]. For the same substance, the Fold IC50 increase relative to wild-type was determined as 1.6 fold in test [21], 1.5 fold in test [22], 1.4 fold in [23] and 2.5 fold in test [24]. Further, the IC50 (µg/mL) neutralization in test [17] was 0.532 µg/mL.

In the case of PGT-121 (antibody), in test [25], the Primary Neutralization Index (B cell culture well 4838 L06) was found to be 3.2 and the Primary Neutralization Index (B cell culture well 4873 E03) was determined as 2.2.

Substance PGT-141 (4964_G22; 4993_K13) (antibody) returned a neutralization IC50 in test [6] above 50 µg/mL.

As to PGT-142 (4995_E20) (antibody), in [6], the neutralization IC50 was above 50 µg/mL.

As for PGT-143 (4980_N08) (antibody), the neutralization IC50 in test [6] was above 50 µg/mL.

In [6], PGT-144 (4970_K22) (antibody) showed a neutralization IC50 above 50 µg/mL.

As for PGV04 (antibody), the IC50 (µg/mL), pseudovirus neutralization in [5] came to 0.201 µg/mL. For the same substance, the neutralization IC50 in [6] was 0.333 µg/mL.

Regarding VRC01 (antibody), the figures for the neutralization IC50 in test [25], in [26] and in [6] were 0.164 µg/mL, 0.06 µg/mL and 0.548 µg/mL, respectively. Also, in test [5], the IC50, pseudovirus neutralization was found to be 0.452 µg/mL.

Source of the values: patent US20200024330A1.
